# Measured values as given in US20260248932A1, “CATIONIC AMPHIPHILIC POLYPEPTIDE FOR DELIVERING RNA AND METHOD FOR PREPARING THE SAME” (INHA UNIVERSITY RESEARCH AND BUSINESS FOUNDATION, priority 2023, published 2026).
# Test: Critical association concentration (CAC) by static light scattering
# Type: physicochemical
# Details: 10 mM HEPES buffer (pH 7.3), 0.001~4 mg/ml
# Method: For the light scattered intensity of the polypeptide, the static light scattering was measured at 25° C. and a detection angle of 173° using Zetasizer Pro (Malvern Panalytical, Worcestershire, UK) equipped with a He—Ne laser (2=633 nm). Samples in 10 mM HEPES buffer (pH 7.3) were analyzed using a low-volume quartz cuvette (ZEN2112, Malvern Panalytic).
# The critical association concentration (hereinafter referred to as CAC) of peptides measured by static light scattering was analyzed. […] Homopolypeptide (DDDDDDDD) used as the control group was well dissolved in buffer (pH 7.3), but no CAC appeared up to treatment concentration of 4 mg/mL.
sequence,measurement,value
DDDDDDDD [octameric homopolypeptide of L-Asp(DET) units used as the control group],critical association concentration (CAC),> 4 mg/mL
